What was measured:
[1] = target: T1, mouse CD80 recombinant protein (Mus musculus, UniProt Q00609); assay: Phage display screening and enzyme-linked immunosorbent assay screening for CD80 binding; conditions: peptide derived from ELISA-positive phage colonies
T1 construct: Fc (Fc chimera); His-tag; purchased R&D Systems 740-B1
Description: In ‘Phage Display Screening”, biopanning is applied via phage display technology. First, the G protein magnetic beads (product name: Dynabeads™ Protein G; manufacturer: Invitrogen) are added to mix with the phage peptide library (product name: PhD-12 Phage Display Peptide Library; manufacturer: New England Biolabs), thus the mixture is incubated for 1 hour at 4° C. ambient conditions. Then, a magnet is used to remove the G protein magnetic beads to exclude phages bound to the G protein magnetic beads in the phage peptide library, thereby obtaining a purified phage peptide library. Continuously, the bait carrier is added to the purified phage peptide library and incubated overnight at 4° C. ambient conditions. The bait carrier is magnetic beads immobilized with mouse CD80 recombinant protein (product name: Recombinant Mouse B7-1/CD80 Fc Chimera His-tag Protein, CF; manufacturer: R&D Systems; catalog number: 740-B1). Therefore, the phages in the purified phage peptide library that bind to the mouse CD80 recombinant protein will be bound to the bait carrier, and then the bait carrier will be separated using the magnet. Then the bait carrier is rinsed with cleaning solution to eliminate phages with weak binding force. The cleaning solution is phosphate buffered saline (PBS) containing 0.1% (v/v) polysorbate-20 (Tween 20). […]

[2] = target: T2, Recombinant Mouse B7-1/CD80 Fc Chimera His-tag Protein, CF (R&D Systems, catalog number 740-B1) (mouse, UniProt Q00609 38-245); assay: phage ELISA on plate-coated mouse CD80 recombinant protein, anti-M13 HRP, absorbance at 450 nm
T2 construct: Bought reagent; everywhere else it is mouse; also called mouse CD80 recombinant protein; bait; Fc part of the bought chimera not given; His-tag
T2 sequence (looked up): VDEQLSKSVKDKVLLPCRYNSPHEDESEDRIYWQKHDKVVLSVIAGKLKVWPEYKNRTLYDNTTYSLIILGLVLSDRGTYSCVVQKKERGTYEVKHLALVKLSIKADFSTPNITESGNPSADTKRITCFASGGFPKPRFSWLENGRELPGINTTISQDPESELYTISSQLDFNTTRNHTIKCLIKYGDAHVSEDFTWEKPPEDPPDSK
Description: The PEG8000/NaCl contains 20% (v/v) PEG8000 (product name: Poly (ethylene glycol); manufacturer: Sigma-Aldrich; Cat. No.: P5413-1KG) and 2.5M NaCl (product name: Sodium chloride; manufacturer: Honeywell fluka; Cat. No.: 31434S-1KG). The above steps are repeated for five rounds in total. In the fourth and fifth rounds, phage clones will be randomly selected for culture, and used in the subsequent enzyme-linked immunosorbent assay (ELISA) to screen out desired phages.
In the “Enzyme Combined Immunosorbent Assay Screening”, the mouse CD80 recombinant protein is first fixed in the wells of a microplate (product name: Clear C-Shaped Immuno Nonsterile 96-Well Plates; manufacturer: Thermo Fisher Scientific; Cat. No.: 446612), and then the phage clones randomly selected in the fourth and fifth rounds of the “Phage Display Screening” are mixed with the diluent at a volume ratio of 1:2 to obtain a phage dilution, which is a phosphate buffered saline comprising 3% (v/v) bovine serum albumin (BSA) and 0.1% (v/v) polysorbate-20. […] Constantly, a microplate reader is adopted to measure the absorbance at 450 nm to confirm whether the phages in each grid of the microplate are still bound to the mouse CD80 recombinant protein in the microplate. […]

T1 sequence (Q00609 with tags, fused parts or gaps limits assumed): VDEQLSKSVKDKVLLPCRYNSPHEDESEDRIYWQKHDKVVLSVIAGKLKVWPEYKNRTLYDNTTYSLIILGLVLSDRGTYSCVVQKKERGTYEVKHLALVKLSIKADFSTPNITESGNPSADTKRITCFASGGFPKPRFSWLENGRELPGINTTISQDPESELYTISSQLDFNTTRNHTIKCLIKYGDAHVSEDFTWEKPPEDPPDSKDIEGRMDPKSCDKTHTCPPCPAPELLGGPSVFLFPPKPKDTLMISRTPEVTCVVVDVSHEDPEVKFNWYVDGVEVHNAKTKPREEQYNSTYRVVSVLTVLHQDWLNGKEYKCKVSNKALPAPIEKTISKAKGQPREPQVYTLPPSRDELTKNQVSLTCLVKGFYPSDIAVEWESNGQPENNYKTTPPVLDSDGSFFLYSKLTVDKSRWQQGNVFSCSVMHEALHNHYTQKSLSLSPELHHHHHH

| Molecule | binding to CD80 protein [1] | binding result [2] |
| --- | --- | --- |
| VLMGDPSVWWTY [first peptide, peptide from phage display screening against mouse CD80 recombinant protein] | can indeed bind to the CD80 protein |  |
| VLMGDPSVWWTY (In the ELISA screening the peptide stood on an M13 phage clone from the PhD-12 Phage Display Peptide Library (New England Biolabs); also called novel peptide) [first peptide (VLMGDPSVWWTY)] |  | binds |
| YLIYEEEPLNSM (In the ELISA screening the peptide stood on an M13 phage clone from the PhD-12 Phage Display Peptide Library) [second peptide (YLIYEEEPLNSM)] |  | binds |

— patent publication US20250302986A1, “NOVEL PEPTIDE, USGAES THEREOF AND PHARMACEUTICAL COMPOSITION HAVING THE SAME” (Taipei Medical University, priority 2024, published 2025)
